The record followed here is publication PMC6265248.

The target of this test is C. reinhardtii Rubisco (CrRubisco), L8S8 holoenzyme (C. reinhardtii (endogenous in strain CC-2677)) (UniProt P00877). The test is described as follows: co-sedimentation; droplet sedimentation assay of demixed (phase-separated) EPYC1-Rubisco droplets, with microscopy: 10 µl reactions, 10 min, 20 mM Tris-HCl pH 8.0, 50 mM NaCl, room temperature, 21,100 x g, SDS-PAGE and densitometry of pellet and supernatant.

“Essential Pyrenoid Component 1 (EPYC1), residues 46-317 (natural protein)” yielded a stoichiometry N (EPYC1:Rubisco) of 1 to 4 and a stoichiometry N (EPYC1 molecules per Rubisco holoenzyme) of 2.
